Values of other authors as cited in PMC6989705 (EJNMMI Radiopharmacy and Chemistry, 2020).

Details: endogenous ligand; ref Rai et al. [2015]; cited from earlier work
Procedure: Somatostatin receptors (SSTRs) are validated biomarkers in the management of NETs. The short biological half-life of the endogenous ligand somatostatin (< 5 min) prevents pharmacological use of this peptide (Rai et al. [2015]). Therefore, synthetic somatostatin analogs that are more resistant to peptidases, such as octreotide, were developed. Using radiolabeled somatostatin analogs, the presence of SSTRs on tumor cells may be exploited for molecular imaging and targeted radionuclide therapy (TRNT) for the treatment of unresectable neuroendocrine tumors (Pauwels et al. [2018]; Deroose et al. [2 ...

Substance: somatostatin
- biological half-life: < 5 min
